Reference: publication PMC6992001
Values joined by “and” are separate entries in the source; they are usually repeats but may differ in a detail not shown here. Equal entries are not always repeated.

Target: Pomacea canaliculata hemocyanin (PcH), native (Pomacea canaliculata)
Experiment: negative-stain transmission electron microscopy; native PcH 0.12 g/L in 20 mM Tris-HCl pH 7.4, 20 mM CaCl2, 20 mM MgCl2; 2% uranyl acetate, room temperature; self-association of subunits into decamers stacked to multi-decamers

stoichiometry N: 20 subunits and 30 subunits and 40 subunits
Substance: Pomacea canaliculata hemocyanin (PcH), native (complex)
